The values that follow are results of earlier work, collected in article PMC12362618, “Development of the First Small-Molecule Inhibitor Targeting Oncostatin M for Treatment of Breast Cancer” (Journal of Medicinal Chemistry, 2025).

The target of this data set is gp130 (Homo sapiens) (UniProt P40189).
Chain of gp130 (Homo sapiens) (P40189 23-619): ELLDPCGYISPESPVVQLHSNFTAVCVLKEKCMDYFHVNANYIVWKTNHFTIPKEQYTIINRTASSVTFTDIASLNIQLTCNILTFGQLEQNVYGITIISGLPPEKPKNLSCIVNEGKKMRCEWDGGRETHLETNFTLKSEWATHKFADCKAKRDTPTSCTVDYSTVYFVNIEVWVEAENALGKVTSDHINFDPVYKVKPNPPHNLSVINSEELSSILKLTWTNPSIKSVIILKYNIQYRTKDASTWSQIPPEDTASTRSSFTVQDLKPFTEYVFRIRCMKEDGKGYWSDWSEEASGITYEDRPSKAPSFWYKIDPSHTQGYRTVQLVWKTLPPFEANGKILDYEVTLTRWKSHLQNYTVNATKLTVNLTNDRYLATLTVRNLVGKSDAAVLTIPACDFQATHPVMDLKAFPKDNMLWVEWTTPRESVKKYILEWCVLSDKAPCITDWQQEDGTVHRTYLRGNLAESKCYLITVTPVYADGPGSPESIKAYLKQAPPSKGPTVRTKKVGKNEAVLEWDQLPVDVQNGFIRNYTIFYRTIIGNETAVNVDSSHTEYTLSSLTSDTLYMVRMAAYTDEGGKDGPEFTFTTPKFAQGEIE

Chain of OSM (P13725 26-221): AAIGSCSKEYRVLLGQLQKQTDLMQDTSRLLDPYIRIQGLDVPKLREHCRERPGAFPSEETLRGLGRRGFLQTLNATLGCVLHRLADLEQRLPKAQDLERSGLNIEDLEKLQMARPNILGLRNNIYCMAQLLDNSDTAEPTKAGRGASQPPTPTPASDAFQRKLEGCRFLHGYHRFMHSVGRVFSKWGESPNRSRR

For orientation: Kd means a measure of binding affinity in units of concentration. As to OSM (from UniProt P13725), the Kd was 22.7 nM.
